# Test results taken from a protein production outcome set (Wang et al. 2014).
# Assay: label from the status in PepcDB records
row,Sequence,protein production
1,MAESLITKKAIAGGLMELCQHKRFEKISIADITNICGLNRQTFYYHFTDKYDLLTWTYENDFFHCLADGITLENWDKHVLKMLESIKENADFYKNTVSADASILSFCFSKLTNSLFMDLFEKIDTNGAVNEADRVFYAEFFSYGCSGVLIKWITRGFKEAPETIANQLFRLAKDTEFLANSMYRENLEHHHHHH,not failed
2,MAETDPKTVQDLTSVVQTLLQQMQDKFQTMSDQIIGRIDDMSSRIDDLEKNIADLMTQAGVEELESENKIPATQKS,failed
3,MAETTPKVKGHVVILPYPVQGHLNPMVQFAKRLVSKNVKVTIATTTYTASSITTPSLSVEPISDGFDFIPIGIPGFSVDTYSESFKLNGSETLTLLIEKFKSTDSPIDCLIYDSFLPWGLEVARSMELSAASFFTNNLTVCSVLRKFSNGDFPLPADPNSAPFRIRGLPSLSYDELPSFVGRHWLTHPEHGRVLLNQFPNHENADWLFVNGFEGLEETQDCENGESDAMKATLIGPMIPSAYLDDRMEDDKDYGASLLKPISKECMEWLETKQAQSVAFVSFGSFGILFEKQLAEVAIALQESDLNFLWVIKEAHIAKLPEGFVESTKDRALLVSWCNQLEVLAHESIGCFLTHCGWNSTLEGLSLGVPMVGVPQWSDQMNDAKFVEEVWKVGYRAKEEAGEVIVKSEELVRCLKGVMEGESSVKIRESSKKWKDLAVKAMSEGGSSDRSINEFIESLGK,failed
4,MAFAPRYSSLIPCALALAASLAGTPDGARAQAPDGPKHPLEKPLAHPPAPPEKLPRVPTDRTKGLDFLFGALKAAPDETSAKHVEGRIWALWSQTTSDTTALLMARSKVAMDAKQFDVALKLLDAVVKLKPDYVEGWNRRATIYYLQNDYMHSLEDIEQVLAREPRHFGALAGLGMIMQELGDDKRALDAFRRALALNPHLDKVPDLVKTLSEKVEGRDI,failed
5,MAFAYPKLSEPDTKGEYADGKYKTEGTATEDYTERFQEEIQKVADDNFPGKKNVHLPWKETKEGDIAFIFKNPKKKPILTDSRGKPLKEGTVIRGGSKIRIAGVIAAWEKGAKRGVSLWPDAVRVIKLSEGLEHHHHHH,failed
6,MAFESAGAGELFLLGRLLFGGVLAFMGLNHFQNAGQMAPYAEAKGLPAPVASVYGSGGLLLVSGVLVILGAYPVIAAGALATFLVASAVMMHNFWAVPDDQMQDEMTQFLKNIALAGGALSLLAVAGTSWPYTVGLSLF,failed
7,MAFKVVISDKEKSVQMEVDPSESRGLIGLTIGDEFDGSIIGLSGYKLKITGGSDKNGFPMKKTVPGARRIRSLVSGGVGYKPRRDGERRRKTFRGNTISDDIVQINTVVIEKGEKPLEELLGADEELEHHHHHH,failed
8,MAFPEYSPAASAATFADLQIHPRVLRAIGDVGYESPTAIQAATIPALMAGSDVVGLAQTGTGKTAAFAIPMLSKIDITSKVPQALVLVPTRELALQVAEAFGRYGAYLSQLNVLPIYGGSSYAVQLAGLRRGAQVVVGTPGRVIDHLERATLDLSRVDFLVLDEADEMLTMGFADDVERILSETPEYKQVALFSATMPPAIRKLSAKYLHDPFEVTCKAKTAVAENISQSYIQVARKMDALTRVLEVEPFEAMIVFVRTKQATEEIAEKLRARGFSAAAISGDVPQAQRERTITALRDGDIDILVATDVAARGLDVERISHVLNYDIPHDTESYVHRIGRTGRAGRSGAALIFVSPRELHLLKAIEKATRQTLTEAQLPTVEDVNTQRVAKFADSITNALGGPGIELFRRLVEEYEREHDVPMADIAAALAVQCRGGEAFLMAPDPPLSRRNRDQRRDRPQRPKRRPDLTTYRVAVGKRHKIGPGAIVGAIANEGGLHRSDFGQIRIGPDFSLVELPAKLPRATLKKLAQTRISGVLIDLRPYRPPDAARRHNGGKPRRKHVG,failed
9,MAFQLHPRLQQDCIVLGNLPLCKVLLIKEDIGPWLILVPRIEELKEIHHMTDEQQIQFIKESSAVAQLLEDNFSPDKINIGALGNLVPQLHIHHIARFTTDVAWPGPVWGNTTGVIRAQSSQTQLVDLLRDKLSNISGFKRLEHHHHHH,not failed
10,MAFRYEHQEPGSRVISGGRDHSNRLLERLGFTVIDGRPTTVEGERAWRLAVWSHLQLTEDLSQVPPGVLRAFGVYGGGQGIWMDKARTDAVHEGGITMGVLHTGAHYPDEISDNDVIYHYPTTGRGPGRDESEVAATKAAATLKLPIFVIAKPTPRSSVRIVRLAWVEGWEERSRIFLISFGDSRPEHLLTEDHSDNQPFSLTGNRSRSSRRNVRERPGQRRFKLRVFQRYGPRCPLSGIAVPEMIEAAHLRPDAEDGTDDPRNGLPLNAALHRAYDAYLFAIEPETLSVVTRPQGPTIEELGIFTPHLRELPRRPHTEALRWRYREWQLRIGTQG,failed
11,MAFTESDVYNNEAFFKQYMKRRYRENSPNELIEKPAFFQLIGDVKGKKILDLGCGDAIFGKELLEKDCHSYTGIEGSELMYEKAKKQLENKNGIVHFLNLKDYTYPPATFDLVTSRLALHYIEHLPIIFQNVYETLKTNGTFTFSVQHPVITSSFESLQTSGKRTSWLVDDYFKTGKRVEPWIDQKVIKYHRTTEEYFTLLQQAGFTITNLKEATPNQTYFQSAEEYERRLRIPLFLLFSCRKLEHHHHHH,not failed
12,MAGETPEQGEGRIISGRYRLLRTLGAGGMGRVWLAYDAELACEVAVKEIALPDLPIDASEPVQRIARARSEARNAARLRGHPHVATVHDVVVHEGLPWIVMEHVPDAIDLQAVVRRSGPLTPARTARIGVAVLDALTAGHRIGILHRDVKPANILLAPDASGDPYARVLLTDYGIALQPESREPRLTATAGILGTPGYLAPERARGEPPTPAADLFSLGATLYATVEGRGPFDRHGEYATLTALLGEEPTPPVRAGELGAVLHGLLIKDPVRRLAPEAVARGLEAVARAAPGEGFGPPPGWGSAPSVGQGFGPPPQGFGPPPDGFGPPSGTPSVSPPSAEGATTAPGAPGAPQVSAPGTPQTPGAPRTPHTPHTPQTPAGGPGTPPGSPSAYNPWRPTPPSGPYDPGNPYASSPSSPYAGTGAPAAYEGGPAYFPPRPSPRRKSAAALVALVVAAALVVTGGIWAALSLTGGPTGDGGGTTGQRAKKSPPVSGPQSTKPAGPVLPYGEQVGLTEPLQAGDCVRAVWSGAAFKSVPNLGVVDCADDWPDGQVVAVDTATDYADARDRGARRCAGQSQATADALPDAGVYAVAPTKEGFTAASGGTACLVLGRHAAIGGEVGRFRDTGTDLWVGQMSIGDCWIYKEEKDSYKAPLSDCAQPHTDQVIGAVSAPKNMDYKKGVDNGNKLCGNKFESSWAPGPARQVFGWVADKEDWNDGFDKVVCTVRRSDGAETSGKISAPGAV,failed
13,MAGFMKNAMSYLGMSDVAEGEDDFEDDVDTGETSFDSDHSVTPMPSSSASASTPSAPREQSNPFQGGRVSRITTIHPKTYDDAQMVGRAIRDGIPVVLNLTGVAEAVAYRIVDFSAGVVFGVRGSIERVTPRVFLLSPAQVNIKVEEPEDKGPAHDLFAD,failed
14,MAGGAVSKGNVIVGLFRKRTSLLITSILLGLIGLPSLGVLDIGNLARAEKAATNAPSPTTPDIKPSELKPAYPASAPPPRVDPLPDERDMQERVVEIDYRVSNLLGDFAGNLWVGSWRGLSRIDPKTGKILARVSLPNVAIGALAQDKVGRLWVGTYEGLKRVEPRTNEISAQNLFLPSKRVLSLLTDKRGYLWVGTDNGLALVSPDQGLIMTTVKNLPGVSGNTLTLDADGQLWTGTLDGVVRINTASALIMKRINDLPGTTVQALAISPEGLIWAGMPNNLLVINPKTGVVLRSVTRLRGRNVTAVRFAKDGSVWVGTHNGLLRLNPNTGAVLDEVAGLPSSRVLSLMPDVANKLWIGTSEGLAWLMPKMDKAKPHLAFSRLVK,failed
15,MAGMDNLIAIAAAMLYLLSIATIVPGLVNQTGIRAKTVFISAAIALLFHGWLLSDLILHSSGQNLSILNVASLISFIISLAMSLAMFKTRLWFLLPVAYSFSAINLSAATFLPGTFITHLESDPKLLLHISLALFSYSTLSIGALYALQLAWLDHKLKSKKVFSINPNLPPLLLVERQLFKIILIGNLLLTGTLLTGFIFVQDMFAQGKAHKGILSFVAWIVYSILLWGHYRKGWRGKKVTWFAVAGATLLTLAYFGSRFVREIILR,failed
16,MAGNFWQSSHYLQWILDKQDLLKERQKDLKFLSEEEYWKLQIFFTNVIQALGEHLKLRQQVIATATVYFKRFYARYSLKSIDPVLMAPTCVFLASKVEEFGVVSNTRLIAAATSVLKTRFSYAFPKEFPYRMNHILECEFYLLELMDCCLIVYHPYRPLLQYVQDMGQEDMLLPLAWRIVNDTYRTDLCLLYPPFMIALACLHVACVVQQKDARQWFAELSVDMEKILEIIRVILKLYEQWKNFDERKEMATILSKMPKPKPPPNSEGEQGPNGSQNSSYSQS,not failed
